Experimental findings from patent US12583886 (KING ABDULLAH UNIVERSITY OF SCIENCE AND TECHNOLOGY, dated 2026) are described below.

The target of assay [1] is human PCNA N107C, N-terminally Histidine-tagged, coupled to SulfoLink agarose resin (PCNA-Agarose column) (human) (UniProt P12004). Description: salt-gradient elution from PCNA-Agarose column, empirical cumulative integration.
Assay [2] shares this target. The assay can be described thus: salt-gradient elution from PCNA-Agarose column (N107C PCNA on SulfoLink resin), EMG fit of UV 280 nm peak.
Assay [3] has as its target T1, human PCNA N107C, N-terminally Histidine-tagged, coupled to SulfoLink agarose resin (PCNA-Agarose column) (human, UniProt P12004 1-261, Cys 107 joined by a thioether bond to the iodoacetyl group of SulfoLink agarose resin).
T1 construct: Homo-trimeric ring; Immobilised bait on the column; also called N107C-PCNA; Proliferating Cell Nuclear Antigen
The description is as above.

In assay [4] the target is T1, human PCNA N107C, N-terminally …. The assay can be described thus: salt-gradient elution from PCNA-Agarose column, empirical cumulative integration.
Excerpt: Two different methods were used for defining and determining this salt concentration. One method relies on empirical calculations while the second method employs a specific model for the elution peak shape. For both methods, protein elution from the column was monitored by the value recorded by the UV detector at 280 nm. The UV absorption was then plotted on the y-axis versus the NaCl concentration (here denoted as 'c') on the x-axis in the gradient region of each chromatogram. Since linear gradients were used for elution, the conversion is readily feasible from the volume in ml to salt concentration in mM on the x-axis, resulting in direct rescaling of the axis.
A binding assay based on chromatography is presented, where the PCNA-Agarose column is used as an analytical tool. The protein of interest was loaded onto the PCNA-Agarose column at low salt concentration followed by extensive washing with a buffer of an equal ionic strength to remove the non-specifically bound proteins. A salt gradient was applied to the column to elute the bound protein of interest. This gradient region of elution in the chromatogram was used for the subsequent analysis. […] The resulting data points, i.e., UV units versus salt concentrations, were analyzed either by the empirical method of cumulative integration or by fitting the peak profile with an EMG model. […]

T1 sequence (P12004 other isoform, or with tags, fused parts or gaps N107C N107C limits assumed): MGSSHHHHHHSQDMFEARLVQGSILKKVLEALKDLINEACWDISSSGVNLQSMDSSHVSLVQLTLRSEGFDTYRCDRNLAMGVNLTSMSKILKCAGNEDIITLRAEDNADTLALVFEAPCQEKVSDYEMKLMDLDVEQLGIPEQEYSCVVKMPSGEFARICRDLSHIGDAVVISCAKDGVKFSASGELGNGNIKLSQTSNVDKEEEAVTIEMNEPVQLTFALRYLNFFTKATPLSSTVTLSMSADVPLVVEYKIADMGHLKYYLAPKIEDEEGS
Chain of human PCNA N107C, N-terminally Histidine-tagged, coupled to SulfoLink agarose resin (PCNA-Agarose column) (human) (P12004 other isoform, or with tags, fused parts or gaps N107C N107C limits assumed): as above

Consider “human DNA polymerase delta (Polδ), four-subunit complex p125/p50/p68/p12 expressed in Sf9 insect cells (from UniProt P28340 1-1107; P49005 1-469; Q15054 1-466; Q9HCU8 1-107) (enzyme)”, for which the median NaCl concentration of elution (50% cumulative elution) in assay [1] is above 400 mM. For the same molecule, in assay [2], the Elution Peak (mM NaCl, mode of EMG fit) was 534 mM.

B1: human p15, N-terminally Histidine- and SUMO-tagged (other, UniProt Q15004 1-111, looked up)
chain: MVRTKADSVPGTYRKVVAARAPRKVLGSSTSATNSTSVSSRKAENKYAGGNPVCVRPTPKWQKGIGEFFRLSPKDSEKENQIPEEAGSSGLGKAKRKACPLQPDHTNDEKE
notes: mature; The PCNA-Agarose column was the first step, so the His- and SUMO-tags were still on the protein; not shown: N-terminal Histidine tag and SUMO tag from the pESUMO pro vector
In the case of B1, in assay [3], the “Elution Peak (mM NaCl, mode of EMG fit)” value was 340 mM.

B2: human DNA polymerase iota (Polι), N-terminally Histidine- and SUMO-tagged (enzyme, UniProt Q9UNA4 1-740, looked up)
chain: MEKLGVEPEEEGGGDDDEEDAEAWAMELADVGAAASSQGVHDQVLPTPNASSRVIVHVDLDCFYAQVEMISNPELKDKPLGVQQKYLVVTCNYEARKLGVKKLMNVRDAKEKCPQLVLVNGEDLTRYREMSYKVTELLEEFSPVVERLGFDENFVDLTEMVEKRLQQLQSDELSAVTVSGHVYNNQSINLLDVLHIRLLVGSQIAAEMREAMYNQLGLTGCAGVASNKLLAKLVSGVFKPNQQTVLLPESCQHLIHSLNHIKEIPGIGYKTAKCLEALGINSVRDLQTFSPKILEKELGISVAQRIQKLSFGEDNSPVILSGPPQSFSEEDSFKKCSSEVEAKNKIEELLASLLNRVCQDGRKPHTVRLIIRRYSSEKHYGRESRQCPIPSHVIQKLGTGNYDVMTPMVDILMKLFRNMVNVKMPFHLTLLSVCFCNLKALNTAKKGLIDYYLMPSLSTTSRSGKHSFKMKDTHMEDFPKDKETNRDFLPSGRIESTRTRESPLDTTNFSKEKDINEFPLCSLPEGVDQEVFKQLPVDIQEEILSGKSREKFQGKGSVSCPLHASRGVLSFFSKKQMQDIPINPRDHLSSSKQVSSVSPCEPGTSGFNSSSSSYMSSQKDYSYYLDNRLKDERISQGPKEPQGFHFTNSNPAVSAFHSFPNLQSEQLFSRNHTTDSHKQTVATDSHEGLTENREPDSVDEKITFPSDIDPQVFYELPEAVQKELLAEWKRAGSDFHIGHK
notes: mature; The SUMO tag was removed only after the PCNA-Agarose step; also called Polt; Poli; not shown: N-terminal Histidine tag and SUMO tag from the pESUMO pro vector
For the molecule B2, the “Elution Peak (mM NaCl, mode of EMG fit)” value in assay [3] was found to be 359 mM.

B3: human DNA polymerase eta (Polη), native after SUMO protease digestion (enzyme, UniProt Q9Y253 1-713, looked up)
chain: MATGQDRVVALVDMDCFFVQVEQRQNPHLRNKPCAVVQYKSWKGGGIIAVSYEARAFGVTRSMWADDAKKLCPDLLLAQVRESRGKANLTKYREASVEVMEIMSRFAVIERASIDEAYVDLTSAVQERLQKLQGQPISADLLPSTYIEGLPQGPTTAEETVQKEGMRKQGLFQWLDSLQIDNLTSPDLQLTVGAVIVEEMRAAIERETGFQCSAGISHNKVLAKLACGLNKPNRQTLVSHGSVPQLFSQMPIRKIRSLGGKLGASVIEILGIEYMGELTQFTESQLQSHFGEKNGSWLYAMCRGIEHDPVKPRQLPKTIGCSKNFPGKTALATREQVQWWLLQLAQELEERLTKDRNDNDRVATQLVVSIRVQGDKRLSSLRRCCALTRYDAHKMSHDAFTVIKNCNTSGIQTEWSPPLTMLFLCATKFSASAPSSSTDITSFLSSDPSSLPKVPVTSSEAKTQGSGPAVTATKKATTSLESFFQKAAERQKVKEASLSSLTAPTQAPMSNSPSKPSLPFQTSQSTGTEPFFKQKSLLLKQKQLNNSSVSSPQQNPWSNCKALPNSLPTEYPGCVPVCEGVSKLEESSKATPAEMDLAHNSQSMHASSASKSVLEVTQKATPNPSLLAAEDQVPCEKCGSLVPVWDMPEHMDYHFALELQKSFLQPHSSNPQVVSAVSHQGKRNPKSPLACTNKRPRPEGMQTLESFFKPLTH
notes: mature; also called Poln
Regarding B3, the “median NaCl concentration of elution (50% cumulative elution)” value in assay [4] is above 400 mM. Moreover, the “Elution Peak (mM NaCl, mode of EMG fit)” value in assay [3] amounted to 513 mM.

B4: human DNA polymerase kappa (Polκ), N-terminally Histidine- and SUMO-tagged (enzyme, UniProt Q9UBT6 1-870, looked up)
chain: MDSTKEKCDSYKDDLLLRMGLNDNKAGMEGLDKEKINKIIMEATKGSRFYGNELKKEKQVNQRIENMMQQKAQITSQQLRKAQLQVDRFAMELEQSRNLSNTIVHIDMDAFYAAVEMRDNPELKDKPIAVGSMSMLSTSNYHARRFGVRAAMPGFIAKRLCPQLIIVPPNFDKYRAVSKEVKEILADYDPNFMAMSLDEAYLNITKHLEERQNWPEDKRRYFIKMGSSVENDNPGKEVNKLSEHERSISPLLFEESPSDVQPPGDPFQVNFEEQNNPQILQNSVVFGTSAQEVVKEIRFRIEQKTTLTASAGIAPNTMLAKVCSDKNKPNGQYQILPNRQAVMDFIKDLPIRKVSGIGKVTEKMLKALGIITCTELYQQRALLSLLFSETSWHYFLHISLGLGSTHLTRDGERKSMSVERTFSEINKAEEQYSLCQELCSELAQDLQKERLKGRTVTIKLKNVNFEVKTRASTVSSVVSTAEEIFAIAKELLKTEIDADFPHPLRLRLMGVRISSFPNEEDRKHQQRSIIGFLQAGNQALSATECTLEKTDKDKFVKPLEMSHKKSFFDKKRSERKWSHQDTFKCEAVNKQSFQTSQPFQVLKKKMNENLEISENSDDCQILTCPVCFRAQGCISLEALNKHVDECLDGPSISENFKMFSCSHVSATKVNKKENVPASSLCEKQDYEAHPKIKEISSVDCIALVDTIDNSSKAESIDALSNKHSKEECSSLPSKSFNIEHCHQNSSSTVSLENEDVGSFRQEYRQPYLCEVKTGQALVCPVCNVEQKTSDLTLFNVHVDVCLNKSFIQELRKDKFNPVNQPKESSRSTGSSSGVQKAVTRTKRPGLMTKYSTSKKIKPNNPKHTLDIFFK
notes: mature; The SUMO tag was removed only after the PCNA-Agarose step; also called Polk; not shown: N-terminal Histidine tag and SUMO tag from the pESUMO pro vector
For B4, the “median NaCl concentration of elution (50% cumulative elution)” value in assay [4] is above 400 mM. The “Elution Peak (mM NaCl, mode of EMG fit)” value in assay [3] is 547 mM.
